{
  "source": "patent US7449553B2",
  "about": "“Antibody that binds ceramidase” (Takara Bio Inc., priority 1999, dated 2008)",
  "experiment": "Temperature stability of the ceramidase",
  "type": "physicochemical",
  "details": "20 mM Tris-HCl pH 7.5, 0.1% polidocanol (Lubrol PX)",
  "experimental": "The activity of the ceramidase can be determined in accordance with the method described, for instance, in J. Biol. Chem., 275, 3462-3468 (2000). Concretely, a reaction mixture prepared by dissolving 550 pmol of 12-((N-(7-nitrobenz-2-oxa-1,3-diazol-4-yl)amino)dodecanoyl)sphingosine, hereinafter referred to as C12-NBD-ceramide [Anal. Biochem., 263, 183-188 (1998)], 1.0% (W/V) sodium cholate and a suitable amount of an enzyme (ceramidase) in 20 μl of 25 mM Tris-hydrochloric acid buffer (pH 7.5) is incubated at 37° C. for 30 minutes. The reaction mixture is incubated in a boiling water bath for 5 minutes, thereby stopping the reaction. The resulting reaction mixture is further evaporated to dryness under reduced pressure. The dried solid is dissolved in chloroform/methanol=2/1 (V/V), and developed by silica gel thin layer chromatography (developing solvent: chloroform/methanol/25% aqueous ammonia=90/20/0.5 (V/V/V)). Thereafter, the 12-(N-7-nitrobenz-2-oxa-1,3-diazol-4-yl)amino)dodecanoyl acid, hereinafter referred to as C12-NBD-fatty acid generated by the above-mentioned reaction is quantified by using CS-9300 Chromatoscanner (manufactured by Shimadzu Corporation) at an excitation wavelength of 475 nm and a fluorescent wavelength 525 nm. […]",
  "note": "“Also recorded” adds a separate entry of the source.",
  "data": [
    {"molecule": "ceramidase: isolated and purified neutral/alkaline ceramidase derived from a mouse liver, mature form SEQ ID NO: 14 (protein, listed as Mus sp.) FSGYYIGVGRADCTGQVSDINLMGYGKNGQNARGLLTRLFSRAFILADPDGSNRMAFVSVELCMISQRLRLEVLKRLESKYGSLYRRDNVILSAIHTHSGPAGFFQYTLYILASEGFSNRTFQYIVSGIMKSIDIAHTNLKPGKIFINKGNVANVQINRSPSSYLLNPQSERARYSSNTDKEMLVLKLVDLNGEDLGLISWFAIHPVSMNNSNHFVNSDNMGYAAYLFEQEKNKGYLPGQGPFVAGFASSNLGDVSPNILGPHCVNTGESCDNDKSTCPNGGPSMCMASGPGQDMFESTHIIGRIIYQKAKELYASASQEVTGPVLAAHQWVNMTDVSVQLNATHTVKTCKPALGYSFAAGTIDGVSGLNITQGTTEGDPFWDTLRDQLLGKPSEEIVECQKPKPILLHSGELTIPHPWQPDIVDVQIVTVGSLAIAAIPGELTTMSGRRFREAIKKEFALYGMKDMTVVIAGLSNVYTHYITTYEEYQAQRYEAASTIYGPHTLSAYIQLFRDLAKAIATDTVANMSSGPEPPFFKNLIASLIPNIADRAPIGKHFGDVLQPAKPEYRVGEVVEVIFVGANPKNSAENQTHQTFLTVEKYEDSVADWQIMYNDASWETRFYWHKGILGLSNATIYWHIPDTAYPGIYRIRYFGHNRKQELLKPAVILAFEGISSPFEVVTT", "values": [
      {"measurement": "Activity after treatment at 37° C. for 24 hours", "result": "reduced activity not being observed; also recorded: does not show the reduced activity"},
      {"measurement": "Activity after treatment at 60° C. for 1 hour, relative to activity before the treatment", "result": "about 30%"}
    ]}
  ]
}
